This is an account of results in paper PMC3929611, “Generation of Recombinant Antibodies to Rat GABAA Receptor Subunits by Affinity Selection on Synthetic Peptides” (PLoS ONE, 2014).

Primed or numbered codes have the meaning given here. Ends that are not written are not given here. * marks the point of attachment. Biotin = O=C1N[C@H]2[C@H](CS[C@H]2CCCCC(=O)*)N1; FITC′ = fluorescein isothiocyanate

For orientation: Kd means a measure of binding affinity in units of concentration.

Assay [1] deals with T1, α1β2γ2 GABAA receptor expressed in Xenopus laevis oocytes (rat α1, rat β2 and human γ2 subunit sequences) (Rattus norvegicus (alpha1, beta2); Homo …, UniProt P62813;P63138;P18507).
T1 construct: GABAA receptor subunit α1, rat; GABAA receptor subunit β2, rat; GABAA receptor subunit γ2, human; also called intact GABAA receptor; GABAA receptors heterologously expressed by Xenopus laevis oocytes; source: Xenopus laevis oocytes injected with mRNA of each subunit, on the oocyte surface; copies: + +
As to the kind of experiment: immunostaining of cells or tissue; Xenopus oocytes expressing α1β2γ2 GABAA receptors or non-expressing, blocked with 10% fetal bovine serum, incubated with scFv overnight at 16°C, detected with FITC-conjugated M2 anti-Flag, confocal microscopy. The settings on record: one partner purified.

The target in assay [2] is T2, biotinylated β2 peptide (GABAA receptor β2 subunit peptide) (Rattus norvegicus (paper: rat/human), biotin at the N-terminus; C-terminal amide).
T2 construct: Serine-Glycine-Serine linker between the N-terminal biotin and the peptide; GABAA receptor subunit β2, rat/human, residues 1-19; also called beta 2; source: synthetic peptide
T2 chain: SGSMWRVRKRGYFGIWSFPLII
As to the kind of experiment: SRU BIND Reader (label-free plate-based biosensor); biotinylated peptides (10 µg/mL) captured on streptavidin-coated BIND plates, blocked with PBST + 5% BSA, scFvs (0.008-17.5 µM) added in elution buffer, 1 h at RT; shift of peak wavelength against concentration. The conditions noted are these: both partners purified.

The target in the next assay is T3, FITC-labeled β2 peptide (Rattus norvegicus (paper: rat/human)).
T3 construct: GABAA receptor subunit β2, rat/human, residues 1-19; also called FITC-conjugated target peptide (β2); source: synthetic peptide, HPLC purified
T3 chain: {FITC′}-MWRVRKRGYFGIWSFPLII
The experiment in a line: fluorescence polarisation; 6 µM FITC-α1 peptide or 4 µM FITC-β2 peptide with varying scFv (0-35 µM; G11 0-10 µM) or A10 scFv-Fc (0-1 µM) in PBS + 200 mM imidazole, overnight at 4°C or 2 h at RT. The settings on record: both partners purified. For orientation: Polarisation of emitted light reports the rotation of a fluorescent probe.

Assay [3] addresses T4, biotinylated α1 peptide (GABAA receptor α1 subunit peptide) (Rattus norvegicus, SMILES …).
T4 construct: Serine-Glycine-Serine linker between the N-terminal biotin and the peptide; GABAA receptor subunit α1, rat, residues 1-15; also called alpha 1; source: synthetic peptide
T4 chain: Biotin-SGSQPSQDELKDNTTVFT-NH2
As to the kind of experiment: SRU BIND Reader (label-free plate-based biosensor); biotinylated peptides (10 µg/mL) captured on streptavidin-coated BIND plates, blocked with PBST + 5% BSA, scFvs (0.008-17.5 µM) added in elution buffer, 1 h at RT; shift of peak wavelength against concentration. The settings on record: both partners purified.

The target of a further assay is T5, FITC-labeled α1 peptide (Rattus norvegicus).
T5 construct: GABAA receptor subunit α1, rat, residues 1-15; also called FITC-conjugated target peptide (α1); source: synthetic peptide, HPLC purified
T5 chain: {FITC′}-QPSQDELKDNTTVFT
As to the kind of experiment: fluorescence polarisation; 6 µM FITC-α1 peptide or 4 µM FITC-β2 peptide with varying scFv (0-35 µM; G11 0-10 µM) or A10 scFv-Fc (0-1 µM) in PBS + 200 mM imidazole, overnight at 4°C or 2 h at RT. The settings on record: both partners purified.

Assay [4] concerns the target T6, MBP-α1 peptide fusion protein (Rattus norvegicus).
T6 construct: GABAA receptor subunit α1, rat, residues 1-15, inserted at the C-terminus of the MBP gene in pAT224; also called MBP-fusion protein; source: E. coli, purified (His60 Ni Superflow resin); not shown: MBP, N-terminal, kept
T6 chain: QPSQDELKDNTTVFT
As to the kind of experiment: far-Western, overlay or dot blot; dot blot; 1 µg to 0.0075 µg MBP-fusion protein adsorbed on PVDF membrane, about 10 nM A10 scFv or A10 scFv-Fc overnight at 4°C, detected with α-Flag-800CW. The settings on record: both partners purified.

In assay [5] the target is T7, GABAA receptor α1 subunit, native, in mouse retina (Mus musculus C57BL/6J, UniProt P62812).
T7 construct: GABAA receptor subunit α1, mouse, within native receptors of the retina; Tissue fixed in 4% paraformaldehyde; also called native GABAA receptors in the mouse retina; source: endogenous, C57BL/6J mouse retina, fixed cryosections
The experiment in a line: immunostaining of cells or tissue; 16 µm cryosections of paraformaldehyde-fixed mouse retina, biotinylated scFv, detected with Cy5-conjugated streptavidin, confocal microscopy. The settings on record: one partner purified.

T1 sequence (P62813 28-455, chain 1 of 3): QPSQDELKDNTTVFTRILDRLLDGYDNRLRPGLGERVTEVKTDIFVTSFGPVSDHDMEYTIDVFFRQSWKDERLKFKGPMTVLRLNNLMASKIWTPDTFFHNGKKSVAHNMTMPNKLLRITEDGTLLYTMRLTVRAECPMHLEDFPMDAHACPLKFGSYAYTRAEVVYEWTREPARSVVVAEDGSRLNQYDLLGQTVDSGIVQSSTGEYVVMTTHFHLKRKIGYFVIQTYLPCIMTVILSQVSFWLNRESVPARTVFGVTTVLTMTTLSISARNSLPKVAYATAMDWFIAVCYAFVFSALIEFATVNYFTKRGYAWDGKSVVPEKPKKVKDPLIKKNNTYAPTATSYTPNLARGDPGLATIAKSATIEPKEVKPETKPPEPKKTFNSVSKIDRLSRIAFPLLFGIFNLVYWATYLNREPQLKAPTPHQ
T1 sequence (P63138 26-474, chain 2 of 3): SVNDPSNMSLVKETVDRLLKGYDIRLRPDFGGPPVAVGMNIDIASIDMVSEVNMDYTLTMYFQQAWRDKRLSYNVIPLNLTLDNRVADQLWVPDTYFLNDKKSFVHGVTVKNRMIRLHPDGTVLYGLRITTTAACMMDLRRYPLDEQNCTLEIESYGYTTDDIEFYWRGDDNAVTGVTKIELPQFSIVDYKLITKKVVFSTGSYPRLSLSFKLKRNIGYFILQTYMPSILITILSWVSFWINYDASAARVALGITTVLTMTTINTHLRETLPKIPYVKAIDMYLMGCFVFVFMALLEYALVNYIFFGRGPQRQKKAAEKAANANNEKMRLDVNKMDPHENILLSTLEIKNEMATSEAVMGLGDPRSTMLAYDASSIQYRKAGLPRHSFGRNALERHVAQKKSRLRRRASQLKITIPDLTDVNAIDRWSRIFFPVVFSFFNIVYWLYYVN
T1 sequence (P18507 40-475, chain 3 of 3): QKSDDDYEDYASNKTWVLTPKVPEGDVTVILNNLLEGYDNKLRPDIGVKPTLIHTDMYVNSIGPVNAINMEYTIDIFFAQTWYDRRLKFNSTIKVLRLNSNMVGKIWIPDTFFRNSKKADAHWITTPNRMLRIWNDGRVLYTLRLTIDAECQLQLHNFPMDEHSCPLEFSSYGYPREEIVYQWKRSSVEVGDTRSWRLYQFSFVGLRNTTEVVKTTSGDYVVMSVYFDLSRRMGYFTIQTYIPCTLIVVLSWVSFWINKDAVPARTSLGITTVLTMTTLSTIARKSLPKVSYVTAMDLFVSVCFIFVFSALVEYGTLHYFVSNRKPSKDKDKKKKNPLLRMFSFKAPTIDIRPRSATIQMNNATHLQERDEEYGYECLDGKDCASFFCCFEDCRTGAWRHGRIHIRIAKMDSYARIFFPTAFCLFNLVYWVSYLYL
T7 sequence (P62812 28-455): as the sequence (P62813 28-455, chain 1 of 3) above

B1: G8 scFv (anti-β2 subunit scFv), soluble protein (scFv, V domains shown)
VH: EVQLVQSGAEVKKPGATVKISCKVSGYTFTDYYMHWVQQAPGKGLEWMGLVDPEDGETIYAEKFQGRVTITADTSTDTAYMELSSLRSEDTAVYYCATTPPHDYYDSSGLDYWGQGTLVTVSS
VL: DIQMTQSPSSVSASVGDRVTITCRASQGINRWLAWYQQKPGKAPKLLIYAASNLQSGVPSRFSGSGSGTDFSLTISSLQPEDFATYYCQQSYSPPSTFGGGTKLEIK
notes: human scFv from a naive phage-display library, order VH-linker-VL; source: P. pastoris X33, secreted, purified (Ni-NTA)
For B1, the binding result in assay [1] is “binds”. In addition, the Kd in assay [2] was determined as 1.6 µM; in the assay with FITC-labeled β2 peptide, 0.97 µM.

B2: A10 scFv (anti-α1 subunit-specific scFv), soluble protein (scFv, V domains shown)
VH: EVQLVQSGAEVKKPGASVKVSCKASGYTFTSYYMHWVRQAPGQGLEWMGIINPSGGSTSYAQKFQGRVTMTRDTSTSTVYMELSSLRSEDTAVYYCARDGWGGSSFLDYWGQGTLVTVSS
VL: SYELTQPPSVSVSPGQTARITCSGDALPKKYAYWYQQKSGQAPVLVIYEDSKRPSGIPERFSGSSSGTMATLTISGAQVEDEADYYCYSKDNTGYQMVFGGGTKLTVL
notes: human scFv from a naive phage-display library, order VL-linker-VH; also called scFv A10; anti-α1 scFv; source: P. pastoris X33, secreted, purified (Ni-NTA)
Consider B2, for which, in assay [1], the binding result is “binds”. Besides, the figures for the Kd (in assay [3]; in the assay with FITC-labeled α1 peptide) were 2.4 µM and 3.5 µM, respectively.

B3: A10 scFv-Fc (dimeric scFv-Fc version of A10) (Fc fusion, human)
VH: B2 VH
VL: B2 VL
notes: as the scFv of m1; order VL-linker-VH; also called A10-Fc; scFv-Fc A10; source: FreeStyle 293F cells, transiently transfected, secreted, purified (His60 Ni Superflow resin); not shown: Fc (human IgG), C-terminal, kept; 3x Flag, C-terminal, kept
B3: the “fold increase in dot-blot sensitivity over the scFv” value in assay [4] is about 10 fold. The Kd with FITC-labeled α1 peptide was determined as 0.026 µM.

B4: A10 scFv, biotinylated in vitro (scFv, V domains shown)
VH: B2 VH
VL: B2 VL
notes: as the scFv of m1; order VL-linker-VH; The same protein as m1, chemically biotinylated for staining of retinal cryosections; also called α1-specific scFv; source: P. pastoris X33, secreted, purified (Ni-NTA)
B4: the binding result in assay [5] is listed as “binds”.
